According to publication PMC5593896, “A signal-on built in-marker electrochemical aptasensor for human prostate-specific antigen based on a hairbrush-like gold nanostructure”:

Biological target: prostate-specific antigen (PSA) (human, UniProt P07288 25-261)
Assay: electrochemical aptasensor (signal-on, MB marker); immobilized aptamer; linear range 0.125-128 ng/mL, LOD 50 pg/mL (40 in Table 1); no Kd in material; 20 mM Tris-HCl pH 7.4, 1 h at 37 °C, then rinsed with Tris; salt not stated
Settings: protein: commercial; label: methylene blue (3', redox marker)

Sequence of prostate-specific antigen (PSA) (P07288 25-261): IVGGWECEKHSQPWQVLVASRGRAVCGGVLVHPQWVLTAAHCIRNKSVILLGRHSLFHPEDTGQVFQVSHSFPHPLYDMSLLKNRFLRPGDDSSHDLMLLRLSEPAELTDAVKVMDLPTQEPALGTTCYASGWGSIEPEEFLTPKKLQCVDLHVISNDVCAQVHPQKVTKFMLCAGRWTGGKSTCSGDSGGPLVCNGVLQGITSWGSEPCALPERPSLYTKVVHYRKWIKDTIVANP

TTTTTAATTAAAGCTCGCCATCAAATAGCTTT (ssDNA, 5' SH-(CH2)6; 3' methylene blue) [PSA aptamer (SH/MB)]
binding result: binds
